Measurements published in PMC9894935, “FMO rewires metabolism to promote longevity through tryptophan and one carbon metabolism in C. elegans” (Nature Communications, 2023).

Assays:
[1] = substrate: NC(=O)C1=CN([C@@H]2O[C@H](COP(=O)(O)OP(=O)(O)OC[C@H]3O[C@@H](n4cnc5c(N)ncnc54)[C@H](OP(=O)(O)O)[C@@H]3O)[C@@H](O)[C@H]2O)C=CC1; assay: purified protein; format: biochemical, Caenorhabditis elegans; conditions: NADPH varied 10 µM to 1.5 mM, excess FAD, 25 mM sodium phosphate pH 8.5, 30 °C, varied: cofactor
[2] = substrate: N[C@@H](Cc1c[nH]c2ccccc12)C(=O)O; assay: purified protein; format: biochemical, Caenorhabditis elegans; conditions: 0.5 mM NADPH, excess FAD, 0.04 µM FMO-2, 25 mM sodium phosphate pH 8.5, 0.5 mM DETAPAC, 30 °C

B1: FMO-2 (CeFMO-2) (Caenorhabditis elegans) (protein)
chain: MGNKRVAVIGAGASGLPSIRHGLLYGFDVTCFEASDDIGGLWRYKSHETNESSVMKTTVINTSKEMTAYSDFTPQENLANFMHNNEMLNYFKSYAEHHGLMKHIKLRHRVLNIERSKNYDNDGTWKVIYQTPEEKTLEEIFDGVLVCSGHHAIPHWPKPFPGQNEFKGRIVHSHDYKDHKGYEDKVVVVVGIGNSGIDVAVEQSRIAKQVYLVTRRGTWLIPKLETRGLPFDIIMNTRFFSLYKLFPQAMLNSLVEYRINQRIDHDLYGLKPAHRVFSAHPSLNDELPNRIANGTVRIKPNIKKFDGYAIHFEDGTIVPHVDEVVMSTGFSFEFNLIEHGKLVPVSENEVDLFKYMFPVATSDHNSLCIIGLIQPFGSIMPVSEQQARVFFANMVSGNNLIPKKSQMSEDVLNKKEAMAQQFVKSRRHTIQVDYIPYMDELAELIGCQVPLLRTLFTDPVLGLRLFFGPNAGYCYRLAGPHTWNGARNAILTIDQRVRMATTTKPEPTNYTVPLVISSIILLLVIYFVM
notes: purified FMO-2 protein purchased from GenScript; assayed with excess FAD
Km [1]: 2500 ± 1240 µM | kcat [1]: 264 ± 98 s⁻¹ | Km [2]: 880 ± 430 µM | kcat [2]: 9.7 ± 1.5 s⁻¹
